We go through 27 molecules from patent US20120065123A1, “Synthetic Antibodies” (priority 2009, published 2012).

Where no end group is shown, it is not given here.

For test [1], the target named is transferrin. In words: peptide microarray, rank by score; with organic prewash.
For test [2], the target named is transferrin. In words: peptide microarray, rank by score; no organic prewash.
For test [3], the target named is transferrin. Kind of test: SPR steady state, Biacore T100, transferrin immobilised. A general note: SPR reads the build-up and loss of mass on a sensor chip optically.
Test [4] deals with transferrin. Kind of test: peptide microarray of about 10,000 peptides, rank by score (555 nm intensity squared over 647 nm intensity); no organic prewash.
The target of test [5] is Tumor Necrosis Factor-alpha (TNF-α). In words: SPR screen at 50 µM peptide, Biacore A100.
Tumor Necrosis Factor-alpha (TNF-α), sequence (P01375 77-233): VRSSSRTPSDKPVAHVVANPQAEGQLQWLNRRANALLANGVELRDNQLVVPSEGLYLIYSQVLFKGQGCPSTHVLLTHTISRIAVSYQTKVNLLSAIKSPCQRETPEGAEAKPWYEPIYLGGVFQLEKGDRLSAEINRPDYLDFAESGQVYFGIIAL
Test [6] has the same target. Kind of test: SPR equilibrium; against the TNF1 lead.
For test [7] the target is unchanged. In words: SPR equilibrium, Biacore A100, TNF-α captured on chip.
Test [8] addresses transferrin. Kind of test: SPR steady state affinity model, Biacore T100, transferrin immobilised (9758 RU).
Test [9] addresses transferrin. Kind of test: SPR kinetics, transferrin immobilised.
Test [10] deals with transferrin. Kind of test: affinity characterization of the peptide; method not named.
Test [11] concerns the target transferrin. Kind of test: against the TRF26 lead.
Test [12] deals with transferrin. Kind of test: affinity characterization of the peptide; method not named. This is another data set of the same source.
In test [13] the target is transferrin. In words: SPR steady state.
Test [14] concerns the target Tumor Necrosis Factor-alpha (TNF-α). Kind of test: SPR kinetic fits of sensorgrams.
The target is the same in test [15]. Kind of test: from SPR dissociation constants.
Test [16] has the same target. In words: SPR kinetic fits of several sensorgrams.
Test [17] shares this target. In words: fluorescence anisotropy.

T100 sequence (P02787 20-698): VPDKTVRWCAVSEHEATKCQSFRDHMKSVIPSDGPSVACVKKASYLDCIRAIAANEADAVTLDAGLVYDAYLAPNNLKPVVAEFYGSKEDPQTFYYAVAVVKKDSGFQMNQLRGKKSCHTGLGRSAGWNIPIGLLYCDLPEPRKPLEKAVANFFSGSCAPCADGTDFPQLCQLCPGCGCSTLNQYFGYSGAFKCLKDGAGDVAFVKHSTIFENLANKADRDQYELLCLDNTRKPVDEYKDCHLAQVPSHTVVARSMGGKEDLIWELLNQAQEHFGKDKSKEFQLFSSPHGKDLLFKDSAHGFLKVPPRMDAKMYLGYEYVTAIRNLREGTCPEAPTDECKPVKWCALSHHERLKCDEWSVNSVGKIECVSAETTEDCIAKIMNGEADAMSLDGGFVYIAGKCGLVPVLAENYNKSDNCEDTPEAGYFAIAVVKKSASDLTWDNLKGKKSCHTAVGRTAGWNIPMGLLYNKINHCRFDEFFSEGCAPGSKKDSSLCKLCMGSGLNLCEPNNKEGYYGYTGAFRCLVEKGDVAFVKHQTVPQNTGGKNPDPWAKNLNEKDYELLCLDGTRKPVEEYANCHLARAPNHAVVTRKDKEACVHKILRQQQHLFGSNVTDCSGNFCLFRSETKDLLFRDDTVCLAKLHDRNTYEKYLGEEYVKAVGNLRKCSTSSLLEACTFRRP

Usually Kd stands for the constant that tells how readily two partners part at equilibrium. A low value points to higher affinity. In the test with transferrin [1], SVKPWRPLLTGNRWLNSGSC [TRF24] returned a Rank -- prewash of 958 rank. Further, in the test with transferrin [2], the Rank - non-prewash was 71 rank. Moreover, in the test with transferrin [3], the Kd came to 50 µM.

For HAYKGPGDMRRFNHSGMGSC [TRF22], in the test with transferrin [1], the Rank -- prewash amounted to 61 rank. In addition, in the test with transferrin [2], the Rank - non-prewash was found to be 711 rank.

With KEDNPGYSSEQDYNKLDGSC [TRF19], in the test with transferrin [1], the Rank -- prewash was determined as 9600 rank. This molecule also yielded a Rank - non-prewash in the test with transferrin [4] of 5010 rank. In addition, the Kd with transferrin [3] worked out at 150 µM.

In the test with transferrin [1], FRGWAHIFFGPHVIYRGGSC [TRF23] had a Rank -- prewash of 2090 rank. In the test with transferrin [2], this molecule came in with a Rank - non-prewash of 2720 rank. In the test with transferrin [3], this molecule returned a Kd of 50 µM.

In the test with transferrin [1], GQTQFAMHRFQQWYKIKGSC [TRF20] showed a Rank -- prewash of 289 rank. For the same molecule, in the test with transferrin [2], the Rank - non-prewash was determined as 18 rank.

Regarding FERDPLKMPWSFLQSRQGSC (modifications not checked) [TNF1 M7K point-mutant], in test [5], the fold enhancement in SPR binding response relative to TNF1 is over 15 fold. In test [6], this molecule had a Component Binding ΔG Contribution of -0.72 kcal/mol and a Kd Fold-Change Relative to Lead of 2.8 fold. For the same molecule, in test [7], the Binding ΔG is -5.93 kcal/mol and the Kd came out at 57 µM.

Molecule GHKVVPQRQIRHAYNRYGSC [TBPL005] displayed a Kd in the test with transferrin [8] of 150 µM.

Molecule QYHHFMNLKRQGRAQAYGSC [TRF21] came in with a Rank -- prewash with transferrin [1] of 5 rank. The same molecule came in with a Rank - non-prewash with transferrin [2] of 84 rank. In the test with transferrin [3], this molecule displayed a Kd of 60 µM.

Take FERDYLMMPWKFLQSRQGSC (modifications not checked) [TNF1 P5Y+S11K double mutant]: in test [6], the Kd Fold-Change Relative to Lead is 6.6 fold. In [7], this molecule had a Binding ΔG (observed) of -6.63 kcal/mol and a Kd of 24 µM.

B1: synbody comprising TRF-26 and TRF-23 (Example 9) (designed binder)
peptide 1: AHKVVPQRQIRHAYNRYGSG
peptide 2: FRGWAHIFFGPHVIYRGGSG
modifications: not fully specified (bridges); also: both C-termini joined to the alpha and epsilon amines of a lysine linker
Molecule B1 came in with a Kd in the test with transferrin [9] of 0.15 µM.

Regarding FERDPLMMPWKFLQSRQGSC (modifications not checked) [TNF1 S11K point-mutant], in test [5], the fold enhancement in SPR binding response relative to TNF1 is over 15 fold. In [6], this molecule yielded a Component Binding ΔG Contribution of -0.82 kcal/mol and a Kd Fold-Change Relative to Lead of 3.9 fold. Moreover, in test [7], the Binding ΔG was -6.03 kcal/mol and the dissociation constant Kd was 40 µM.

In turn, FERDYLKMPWSFLQSRQGSC (modifications not checked) [TNF1 P5Y+M7K double mutant] returned a Kd Fold-Change Relative to Lead in test [6] of 5.8 fold. In test [7], this molecule showed a Binding ΔG (observed) of -6.24 kcal/mol and a Kd of 27 µM.

The molecule FERYPLMMPWKFLQSRQGSC (modifications not checked) [TNF1 D4Y+S11K double mutant] yielded a Kd Fold-Change Relative to Lead in test [6] of 17 fold. Besides, in [7], the Binding ΔG (observed) is -6.67 kcal/mol and the Kd was found to be 9.3 µM.

In the case of AHKVVYQRQIRFAYNRYGSC [TRF26 P6Y+H12F double mutant], in the test with transferrin [10], the Binding ΔG (observed) was -8.68 kcal/mol and the Kd came out at 0.5 µM. The molecule also registered a Kd Fold-Change Relative to Lead in the test with transferrin [11] of 190 fold.

In the test with transferrin [10], AHKVVPQRQIRFAYNRYGSC [TRF26 H12F point-mutant] yielded a Binding ΔG of -6.85 kcal/mol and a Kd of 9.7 µM. Moreover, the Kd in the test with transferrin [12] came out at 9.8 µM. For the same molecule, in the test with transferrin [11], the Component Binding ΔG Contribution is -1.29 kcal/mol and the Kd Fold-Change Relative to Lead is 8.8 fold.

As for AHKVVPQRQMRHAYSRYGSC [TBPM023], in the test with transferrin [8], the Kd is 11.6 µM. Besides, in the test with transferrin [13], the fold improvement of affinity against the original peptide TRF26 was over 10 fold.

On to FERDYLMMPWSFLQSRQGSC (modifications not checked) [TNF1 P5Y point-mutant], for which, in test [5], the fold enhancement in SPR binding response relative to TNF1 was over 15 fold. In test [6], this molecule displayed a Component Binding ΔG Contribution of -0.58 kcal/mol and a Kd Fold-Change Relative to Lead of 2.7 fold. In [7], this molecule had a Binding ΔG of -5.79 kcal/mol and a dissociation constant (Kd) of 58 µM.

In test [6], FERYPLKMPWSFLQSRQGSC (modifications not checked) [TNF1 D4Y+M7K double mutant] showed a Kd Fold-Change Relative to Lead of 9.4 fold. In [7], the Binding ΔG (observed) is -6.54 kcal/mol and the Kd came out at 17 µM.

In the test with transferrin [1], APYAPQQIHYWSTLGFKGSC [TRF25] gave a Rank -- prewash of 603 rank. For the same molecule, in the test with transferrin [2], the Rank - non-prewash was 736 rank. Moreover, in the test with transferrin [3], the Kd is 60 µM.

Molecule LDPLFNTSIMVNWHRWMGSC [TRF27] returned a Rank -- prewash with transferrin [1] of 3320 rank. In the test with transferrin [2], this molecule displayed a Rank - non-prewash of 1290 rank.

As for FERSYLKMPWSFLQSRQGSC (modifications not checked) [TNF1 D4S+P5Y+M7K triple mutant], the Kd Fold-Change Relative to Lead in [6] is 11 fold. Besides, in test [7], the Binding ΔG (observed) was -6.63 kcal/mol and the equilibrium dissociation constant (Kd) was found to be 14 µM.

One may read the koff as a measure of how fast the partners let go of each other. Low values mean slow dissociation, high ones fast dissociation. For FERSYLKMPWKFLQSRQGSC (modifications not checked) [TNF1-opt (D4S+P5Y+M7K+S11K quadruple mutant of TNF1)], the koff in test [14] is 0.2 s⁻¹. Besides, in test [15], the difference in observed binding energy against the D4S+P5Y+S11K mutant was -0.94 kcal/mol, the difference in observed binding energy against the P5Y+M7K mutant was -1.73 kcal/mol and the difference in observed binding energy against the P5Y+S11K mutant was -1.66 kcal/mol. In addition, the Kd in test [16] was 0.7 µM. The molecule further yielded a Kd in test [17] of 1.1 µM. This molecule also registered a Kd Fold-Change Relative to Lead in test [6] of 100 fold. In test [7], the Binding ΔG (observed) is -7.97 kcal/mol and the Kd came out at 1.6 µM.

On to FERYPLMMPWSFLQSRQGSC (modifications not checked) [TNF1 D4Y point-mutant], for which the fold enhancement in SPR binding response relative to TNF1 in [5] is over 15 fold. Moreover, in test [6], the Component Binding ΔG Contribution is -0.74 kcal/mol and the Kd Fold-Change Relative to Lead was 3.6 fold. Also, in test [7], the Binding ΔG was -5.95 kcal/mol and the Kd was determined as 44 µM.

Consider FERSYLMMPWKFLQSRQGSC (modifications not checked) [TNF1 D4S+P5Y+S11K triple mutant], for which the difference in observed binding energy against the P5Y+S11K mutant in test [15] is -0.72 kcal/mol. The molecule also displayed a Kd Fold-Change Relative to Lead in test [6] of 23 fold. In test [7], this molecule displayed a Binding ΔG (observed) of -7.03 kcal/mol and a Kd of 7 µM.

For the molecule GHKVVPQRQMRHAYNRNGSC [TBPL025], the Kd with transferrin [8] is 150 µM.

For the molecule AHKVVYQRQIRHAYNRYGSC [TRF26 P6Y point-mutant], in the test with transferrin [10], the Binding ΔG is -6.93 kcal/mol and the Kd worked out at 8.6 µM. In the test with transferrin [11], this molecule returned a Component Binding ΔG Contribution of -1.37 kcal/mol and a Kd Fold-Change Relative to Lead of 10 fold.

Turning to AHKVVPQRQIRHAYNRYGSC [TRF26], in the test with transferrin [1], the Rank -- prewash is 436 rank. Further, the Rank - non-prewash with transferrin [2] amounted to 596 rank. Moreover, in the test with transferrin [10], the Binding ΔG was -5.56 kcal/mol and the Kd came out at 85 µM. The molecule further yielded a Kd in the test with transferrin [3] of 100 µM.
